# Laboratory results as given in paper PMC9220312.
# Target: mouse thrombomodulin (endogenous, lung) (mouse (endogenous in mouse lung)) (UniProt P15306)
# Sequence of UniProt P15306 (P15306 17-577): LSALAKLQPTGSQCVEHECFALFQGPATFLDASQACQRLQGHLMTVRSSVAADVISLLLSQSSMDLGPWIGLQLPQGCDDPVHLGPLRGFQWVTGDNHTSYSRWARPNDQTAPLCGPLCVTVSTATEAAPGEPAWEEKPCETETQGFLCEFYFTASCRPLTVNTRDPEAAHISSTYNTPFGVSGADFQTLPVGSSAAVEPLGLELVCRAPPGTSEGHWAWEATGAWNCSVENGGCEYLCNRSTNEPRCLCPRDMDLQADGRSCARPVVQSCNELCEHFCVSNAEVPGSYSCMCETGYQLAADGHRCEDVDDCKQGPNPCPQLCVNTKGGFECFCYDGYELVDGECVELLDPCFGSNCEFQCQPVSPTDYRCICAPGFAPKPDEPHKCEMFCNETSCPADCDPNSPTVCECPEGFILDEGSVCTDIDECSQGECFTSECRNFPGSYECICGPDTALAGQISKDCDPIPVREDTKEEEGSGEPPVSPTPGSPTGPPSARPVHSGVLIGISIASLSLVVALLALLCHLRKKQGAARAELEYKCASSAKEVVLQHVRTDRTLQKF
substance,measurement,value
"recombinant human His-tagged fragment of Angiopoietin-2 (ab220589, Abcam) (from UniProt O15123 19-496) (domain or fragment)",tail bleeding time in mice 2 h after i.p. injection of 8 nmol human ANGPT2,50%
